Test results taken from patent US20200109207A1 (CELLDEX THERAPEUTICS, published 2020).

Tests used:
[1] = molecular target: T1, recombinant human CD27-FLAG-HIS (human, UniProt P26842 20-191); assay: ELISA, plate coated with recombinant human CD27-FLAG-HIS
T1 sequence: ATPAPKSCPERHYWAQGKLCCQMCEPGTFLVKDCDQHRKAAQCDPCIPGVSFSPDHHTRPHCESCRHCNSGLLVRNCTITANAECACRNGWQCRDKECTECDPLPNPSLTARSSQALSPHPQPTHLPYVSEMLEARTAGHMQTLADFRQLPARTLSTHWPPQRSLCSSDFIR
Method: Microtiter plates were coated with recombinant human CD27-FLAG-HIS in PBS, and then blocked with 5% bovine serum albumin in PBS. Protein A purified human monoclonal antibodies were added at various concentrations and incubated at 37° C. The plates were washed with PBS/Tween and then incubated with a goat-anti-human IgG Fc-specific polyclonal reagent conjugated to horseradish peroxidase at 37° C. After washing, the plates were developed with HRP substrate, and analyzed at OD 450-650 nm using a microtiter plate reader.

[2] = molecular target: T2, human CD27 on the cell surface (Ramos cells, human CD3+ T cells, CD27 reporter cell line) (human, UniProt P26842 20-260); assay: flow cytometry, Ramos cells expressing human CD27, antibody 3 µg/ml
T2 construct: also called CD27 on cells
T2 sequence: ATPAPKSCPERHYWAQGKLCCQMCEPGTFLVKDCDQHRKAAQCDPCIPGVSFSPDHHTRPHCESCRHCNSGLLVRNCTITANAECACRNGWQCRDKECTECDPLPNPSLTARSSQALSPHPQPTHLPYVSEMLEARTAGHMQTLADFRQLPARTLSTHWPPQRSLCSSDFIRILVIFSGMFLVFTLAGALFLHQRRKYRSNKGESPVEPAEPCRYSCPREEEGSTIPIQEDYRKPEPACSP
Method: Antibodies were tested for binding to a human cell line expressing human CD27 on their surface. Protein A purified human monoclonal antibodies (3 μg/ml) were incubated with Ramos cells expressing human CD27 at room temperature on a plate shaker. After 20 minutes, the cells were washed with PBS containing 0.1% BSA and 0.05% NaN₃ (PBA) and the bound antibodies were detected by incubating the cells with a PE labeled goat anti-human IgG Fc-specific probe. The excess probe was washed from the cells with PBA and the cell associated fluorescence was determined by analysis using a FACSCanto II™ instrument (BD Biosciences, NJ, USA) according to the manufacturer's directions.

[3] = molecular target: T3, full length wild type extracellular domain (ECD) of human CD27 (human, UniProt P26842 21-188); assay: ELISA, plate coated with wild type CD27 ECD; supernatant of cells expressing mAb 2B3; anti-human IgG Fc-HRP
T3 construct: also called wild type huCD27; ECD of huCD27
T3 sequence: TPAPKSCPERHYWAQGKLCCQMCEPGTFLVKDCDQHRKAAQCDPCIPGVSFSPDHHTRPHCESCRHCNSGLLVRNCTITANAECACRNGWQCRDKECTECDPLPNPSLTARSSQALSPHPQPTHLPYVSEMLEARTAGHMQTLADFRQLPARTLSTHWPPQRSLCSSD
Method: (§1) The full length wild type extracellular domain (ECD) of human CD27 or human CD27 with mutated amino acids 85, 87, 88, and 89 (A85S, R87A, N88A and G89A; see FIG. 34) were coated to a plate, then blocked. Supernatant from transiently transfected cells expressing mAb 2B3 was added and binding was detected with an HRP conjugated goat anti-human IgG Fc polyclonal antibody.

[4] = molecular target: T4, human CD27 ECD with mutated amino acids 85, 87, 88 and 89 (A85S, R87A, N88A and G89A) (human, UniProt P26842 21-188); assay: ELISA, plate coated with mutated CD27 ECD; supernatant of transiently transfected cells expressing mAb 2B3; anti-human IgG Fc-HRP
T4 construct: also called mutated huCD27; mutated CD27 ECD
T4 chain: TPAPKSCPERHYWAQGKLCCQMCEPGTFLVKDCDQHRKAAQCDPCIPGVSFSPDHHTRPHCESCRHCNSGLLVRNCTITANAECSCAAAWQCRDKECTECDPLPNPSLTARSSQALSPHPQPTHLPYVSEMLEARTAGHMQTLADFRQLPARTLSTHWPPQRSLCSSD
Method: as §1

[5] = molecular target: T1, recombinant human CD27-FLAG-HIS; assay: bifunctional ELISA generally as in Example 16 (CD27-FLAG-HIS coated, PD-L1-msFc detected)
Method: Binding of bispecific constructs to CD27 and PD-L1 was assessed using a bifunctional ELISA. Antibody AbX is a known anti-PD-L1 monoclonal antibody. In brief, a microtiter plate was coated with human CD27-FLAG-HIS. Dilutions of the bispecific constructs were allowed to bind before adding human PD-L1-msFc that was detected with an HRP labeled goat anti-mouse IgG (Fc specific) antibody.

Row | Binder | binding result [1] | binding result [2] | binding result [3] | binding result [4] | binding result [5]
1 | anti-CD27 human monoclonal antibody 2B3 (antibody, V domains shown, In the cynomolgus CD27 ELISA hybridoma supernatants were used (human V regions with rat constant regions); also called mAb 2B3) VH: QVQLVQSGAEVKKPGASVKVSCKASGYTFTGYYIHWVRQAPGQGLEWMGWINPNSGGTNSAQKFQDRVTITRVTSINTAYMELSRLRSDDTAVYFCARDRLVLPWFGEIFPDAFDIWGQGTLVTVSS VL: EIVMTQSPATLSVSPGERATLSCRASQSIRSNLAWYQQKPGQAPRLLIYGASTRATGIPARFSGSGSGTEFTLTISSLQSENFAVYYCQQYNNWPLTFGGGTKVEIK | binds | binds | binds | no binding | –
2 | anti-CD27 human monoclonal antibody 3C2 (antibody, V domains shown, hybridoma supernatant (rat constant regions) in the cynomolgus CD27 ELISA) VH: QAQLQESGPGLVKPSETLSLTCTVSTGSISGYYWSWIRQPPGKGLEWIGYNYYSGSTNYNPSLKSRVTISIDTSKNQFSLKLNSVTAADTAVYYCARYPLIRGAFDYWGQGTLVTVSS VL: not shown | binds | binds | – | – | –
3 | CDX-527 (9H9×2B3 bispecific antibody: anti-PD-L1 IgG1 9H9 with anti-CD27 2B3 scFv) (bispecific antibody) heavy: not shown light: DIQMTQSPSTLSASVGDRVTITCRASQSISGWLAWYQQKPGKAPKLLIYKASSLESGVPSRFSGSGSGTEFTLTISSLQPDDFATYYCQQYYGSSRTFGQGTNVEIKRTVAAPSVFIFPPSDEQLKSGTASVVCLLNNFYPREAKVQWKVDNALQSGNSQESVTEQDSKDSTYSLSSTLTLSKADYEKHKVYACEVTHQGLSSPVTKSFNRGEC | – | – | – | – | binds
